We go through two molecules from patent US6465430.

In this experiment the target is soluble TPO-R (thrombopoietin receptor), immobilized (UniProt P40238 26-491). Put plainly: competition ELISA vs MBP-TPO156 (+: IC50 <=200 µM). A general note: In an ELISA, binding on a coated surface is turned into a signal by an enzyme label.

Bridges are numbered along the chain shown (N, C = ends). Where no end group is shown, it is not given here.

Sequence of soluble TPO-R (thrombopoietin receptor), immobilized (P40238 26-491): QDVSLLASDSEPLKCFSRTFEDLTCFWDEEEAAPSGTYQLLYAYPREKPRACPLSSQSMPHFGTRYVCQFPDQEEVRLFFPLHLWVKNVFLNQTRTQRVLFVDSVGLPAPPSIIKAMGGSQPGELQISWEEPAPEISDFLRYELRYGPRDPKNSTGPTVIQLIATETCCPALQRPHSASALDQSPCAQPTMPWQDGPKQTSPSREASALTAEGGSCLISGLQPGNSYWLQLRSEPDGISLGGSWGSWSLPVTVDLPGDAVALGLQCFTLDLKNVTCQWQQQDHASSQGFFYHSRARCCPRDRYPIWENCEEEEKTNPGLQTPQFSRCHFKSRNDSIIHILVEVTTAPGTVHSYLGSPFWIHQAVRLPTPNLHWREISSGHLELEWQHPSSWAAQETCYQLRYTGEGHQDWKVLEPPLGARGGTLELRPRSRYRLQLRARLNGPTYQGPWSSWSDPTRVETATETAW

CADGPTLREWASFC-NH2 (disulfide 1-14 (inferred)) [cyclized SEQ ID NO:12 compound, I - A] yielded an IC50 of 0.5 to 200 µM. Regarding CPTLREWISFC-NH2 (disulfide 1-11 (inferred)) [cyclized SEQ ID NO:12 compound, ADG - deletion], the IC50 was in the range of 0.5 to 200 µM.

The term IC50 denotes the concentration that gives 50% inhibition.
